According to publication PMC12886537, “Dual-mode aptamer-driven biosensing platform for ultrasensitive and mutation-resilient detection of the SARS-CoV-2 nucleocapsid protein”:

Legend:
[1] = target: SARS-CoV N protein (SARS-CoV, UniProt P59595 1-422); details: protein: commercial, chain copies: 2
[2] = target: T1, SARS-CoV-2 nucleocapsid (N) protein (SARS-CoV-2 (original/prototype), UniProt P0DTC9 1-419); assay: SPR; single concentration; details: protein: recombinant; tags: His; chain copies: 2
[3] = target: T1, SARS-CoV-2 nucleocapsid (N) protein; assay: ELONA; details: protein: recombinant; tags: His; chain copies: 2; label: biotin (ELONA); 5'-FAM (flow cytometry, confocal)

Binder | binding result [1] | binding result [2] | other results
TTTTTAACACGACTCTCCTGTGGCATTGCCTGTCGTGCCATG (structured_DNA) [NP14a] | binds | – | –
NP1 (ssDNA) DNA: TTTTTAACACGACCTCACTGTGCCGGCCACAGCTCACCACAGTGGGCCCATG | – | binds | –
NP11 (ssDNA) DNA: TTTTTAAGCCCACTTTTCTGTGCCGGGCACAGCATGGGCTTGTCGTGCCATG | – | binds | –
TTTTTAACACGACTCTCCTGTGGCCAGCGAACTGATGTGCCATG (structured_DNA) [NP14b] | binds | – | –
NP14 (structured_DNA) DNA: TTTTTAACACGACTCTCCTGTGGCCAGCGAACTGATTGCCTGTCGTGCCATG | – | – | Kd [3]: 3.68 nM; Kd ([1]; label: biotin (ELONA), 5'-FAM (flow cytometry, confocal)): 3.45 nM
